Experimental data reported in patent publication US20250215071A1, “Novel Mcl-1 inhibitor and combination of Mcl-1 and a BH3 mimetic, such as a Bcl-2 inhibitor” (NETRIS PHARMA, priority 2022, published 2025).

B1: NP137: humanized anti-netrin-1 monoclonal antibody, VH SEQ ID NO: 22, VL SEQ ID NO: 16, human IgG1 (antibody, V domains shown)
VH: QVQLQQSGPGLVKPSQTLSLTCAISGYTFTSYNMHWVRQATGQGLEWMGAIYPGNGDTSYNQKFKGRLTISKDTSKNQVVLTMTNMDPVDTATYYCARGGTGFAYWGQG
VL: DIQMTQSPSSLSASVGDRVTITCKASQSVSNDVAWYQQKPGQAPRLLIYYASNRYTGIPPRFSGSGYGTDFTLTINNIESEDAAYYFCQQDYSSPWTFGQG
modifications: human IgG1 constant region; humanized variant; MISC_FEATURE - CDR according to IGMT

How the values were obtained:
Mcl-1 = Mcl-1 protein levels by western blot in HeLa UNC5B cells; assay type: cell-based, Human; conditions: 2 μg/mL Dox
Protocol: FIG. 4. UNC5B triggers proteasomal degradation of Mcl-1. (A,B): UNC5B-induced apoptosis requires proteasome activity. Stable Hela cells inducible for UNC5B (HeLa UNC5B) were treated with doxycycline (Dox) at 2 μg/mL, in combination with the indicated doses of the proteasome inhibitors MG132 and bortezomib (BTZ). 18 hours after treatment, apoptosis was measured by DNA fragmentation (A) and caspase-3 activity (B) (n=3-4, **** p<0.0001, ordinary two-way ANOVA with Tukey's multiple comparisons test). Values are given as means±SEM Treatment with proteasome inhibitors was sufficient to strongly reduce apoptosis induction upon UNC5B over-expression. (C): UNC5B triggers Mcl-1 degradation. HeLa UNC5B cells were treated with 2 μg/mL of Dox, in combination with bortezomib (BTZ, 1 μM) and the pan-caspase inhibitor Q-VD-OPh (QVD, 10 µM) inhibitors. 16 hours after treatment, cells were lysed by scraping and sonication in SDS-containing buffer. Protein levels of Mcl-1, Bcl-2 and Bcl-XL, as well as of UNC5B and B-actin, used as housekeeping gene, were evaluated by western blot. […] UNC5B over-expression specifically promoted Mcl-1 protein decrease. […] (D): Mcl-1 degradation induced by UNC5B requires COMMD2/CRL3 complex. HeLa UNC5B cells were transfected with scramble (siCTRL), COMMD2 (siCOMMD2) or RBX1 (siRBX1) siRNAs. […] Protein levels of Mcl-1, UNC5B and Ku80, used as housekeeping protein, were evaluated by western blot. […] Stable HeLa UNC5B cells, constitutively expressing Mcl-1 or empty vector, were treated with doxycycline and apoptosis was evaluated 18 hours later by DNA fragmentation (n=3, ^nsp>0.05, ordinary two-way ANOVA with Sidak's multiple comparisons test). […] Stable HeLa UNC5B cells, constitutively expressing Mcl-1, Bcl-2 or Bcl-XL were treated with Dox and protein levels were evaluated as described in (C). […] 18 hours later, protein levels of Mcl-1, UNC5B and β-actin, used as housekeeping gene, were evaluated by western blot. […] Cells were harvested at the indicated times after CHX treatment, and protein levels were assessed by western blot. […]

H322 cells = test: Xenografts of stable H322 cells in nude mice, tumor growth; assay type: in vivo, NMRI nude mice; conditions: 10 mg/Kg intravenously three times per week, vs Iso-mAb
Protocol: FIG. 3. COMMD2 is required for UNC5B-induced cell death and tumor suppression. (A): Silencing COMMD2 inhibits UNC5B-induced DNA fragmentation. Stable Hela cells inducible for UNC5B were transfected with two distinct siRNA scramble (siCTRL) or targeting COMMD2 (siCOMMD2-1 and -2). Upon treatment for 18 hours with the indicated concentrations of doxycycline (Dox), DNA fragmentation was evaluated through FACS analysis (n=3, **** p<0.0001, Ordinary two-way ANOVA). Values are given as means±SEM. (B, C, D): Tumor growth inhibition driven by netrin-1 interference necessitates UNC5B and COMMD2. NMRI nude mice were engrafted with stable H322 cells, knock-down for luciferase (sgLUC, used as a non-targeting control), UNC5B (sgUNC5B) or COMMD2 (sgCOMMD2), generated with CRISPR-Cas-9-KRAB strategy. Tumors obtained from nude mice engrafted with stable H322 cells were lysed and gene expression was evaluated by quantitative RT-PCR (n=2-3, *p<0.05, Kruskal-Wallis test with Dunn's multiple comparisons test) (B). After tumor volume reached 50 mm^3, mice were intravenously treated three time per week with anti-netrin-1 (NP137) or control (Iso-mAb) antibodies and tumor growth was evaluated (n=10 mice/group, ^nsp>0.05, *p<0.05, Mann-Whitney test, two-tailed) (C). A histogram illustrating tumor volumes at 35 days after first treatment is indicated in (D) (n=10 mice/group, ^nsp>0.05, *p<0.05, *** p<0.001, Kruskal-Wallis test with uncorrected Dunn's test). (E). Silencing of UNC5B and COMMD2 restrains in vivo NP137-induced apoptosis. After sacrificing the mice, tumors were resected and apoptosis was quantified by immunostaining of active cleaved caspase-3. […]
5-week-old female athymic NMRI nude mice were obtained from Janvier Labs (Saint Bertevin, France). […] Tumor size was measured three times per week with a caliper. Tumor volume was calculated according to the formula v=0.5× (l×w2), where v is volume, l is length, and w is width. […]

Molecule | degradation of ectopically-expressed Mcl-1 (Mcl-1; HeLa UNC5B cells constitutively expressing Mcl-1, 18 hours) | Mcl-1 protein levels / degradation triggered by UNC5B (Mcl-1; endogenous Mcl-1, BTZ 1 μM, QVD 10 µM, 16 hours) | tumor growth (H322 cells; H322 tumors knocked-out of COMMD2 (sgCOMMD2)) | tumor growth (H322 cells; H322 tumors knocked-out of UNC5B (sgUNC5B)) | tumor growth (H322 cells; control H322 cells (sgLUC))
CC(C)C[C@H](NC(=O)[C@H](Cc1ccccc1)NC(=O)c1cnccn1)B(O)O [bortezomib] | restrained the degradation | increased but similar Mcl-1 protein levels in both untreated and doxycycline-treated cells | – | – | –
B1 | – | – | less sensitive | less sensitive | strongly inhibited tumor growth
